Results: patent US5635615, “High affinity HIV nucleocapsid nucleic acid ligands” (NeXstar Pharmaceuticals, Inc.)

What was measured:
Settings in all cases: tags: processed NC, 55 aa, from pBH10, gift of Agouron Pharmaceutical; label: 5'-32P
[1] = biological target: T1, HIV-1 nucleocapsid p7 (NC) (Human immunodeficiency virus type 1 …, UniProt P03347 P03347:378-432); experiment: filter; 10 mM NaOAc pH 5.3, 0.1 mM ZnCl2, 5 mM MgCl2, 100 mM NaCl, 37 C
Method: Binding assays were done by adding 5 μl of HIV-1 p7 nucleocapsid protein, at the appropriate concentrations (i.e., ranging from 6×10^-10 to 5×10^-8), to 45 μl of binding buffer (10 mM NaOAc (pH 5.3), 2 mM 2-mercaptoethanol, 0.1 mM ZnCl_2, 5 mM MgCl_2, 100 mM NaCl) on ice, then adding 80,000 cpm of kinased RNA (<200 fmoles) in a volume of 3 to 4 μl. This mix was incubated at 37° C. for 20 minutes. The reactions were then passed over nitrocellulose filters, which were pre-equilibrated in the same buffer, and washed five times with one milliliter each time using a 50 mM Tris-Cl pH 7.5 solution. Filters were dried and counted in cocktail. The protein used in these experiments were frozen and thawed only once. Each binding curve consisted of seven points and each point is the average of duplicates.
The dissociation constants for 12 of the 14 RNA species were determined by nitrocellulose filter binding. These experiments were carried out in duplicates. All binding curves were done using γ-^32P labeled RNA in binding buffer containing 100 mM NaCl.

[2] = biological target: T1, HIV-1 nucleocapsid p7 (NC); experiment: inhibition; about 50% inhibition of NC-stimulated annealing of con+/con- DNA, 10 nM NC
Method: (§1) This buffer was used and the concentration of each oligo was reduced keeping their action time constant to find an oligo concentration that would give less than 10% duplex formation under these conditions. The conditions in the reaction used for inhibition assay was as follows. 400 pM each DNA oligo (con+/−) was mixed with 10 nM nucleocapsid for 6 minutes at 37° C. in binding buffer containing 200 mM NaCl in a reaction volume of 30 µl. After this time, reactions were stopped by placing on ice and loaded on gel after 2 minutes. Gels were run at 250 volts for 3.5 hours. In reactions where random RNA was added as inhibitor, the concentrations range from 6500 nM to 9 nM. Where selected RNAs were used, the range was 720 nM to 0.11 nM.

[3] = biological target: T1, HIV-1 nucleocapsid p7 (NC); experiment: inhibition; inhibition of NC-stimulated annealing of con+/con- DNA, 10 nM NC
Method: as §1

Binder	Kd [1]	IC50 [2]	Ki [3]
400-17 (ssRNA) RNA: GGGAGCUCAGAAUAAACGCUCAAGUUCUGAGAACUCUCCCCAUUCUAGUGUGCUUCGACAUGAGGCCCGGAUCCGGC	2 nM	~0.5 nM	
400-23 (ssRNA) RNA: GGGAGCUCAGAAUAAACGCUCAACUGAGAACUCUCCCGCUCGCAUUAUUAACCUUCGACAUGAGGCCCGGAUCCGGC	6 nM		3 nM
